# Reference: article PMC5134256 (Nature, 2016)
# B1: Cse2 subunit of E. coli Cascade, His6 tag cleaved (natural protein, E. coli K12, UniProt P76632 1-160, looked up)
# chain: MADEIDAMALYRAWQQLDNGSCAQIRRVSEPDELRDIPAFYRLVQPFGWENPRHQQALLRMVFCLSAGKNVIRHQDKKSEQTTGISLGRALANSGRINERRIFQLIRADRTADMVQLRRLLTHAEPVLDWPLMARMLTWWGKRERQQLLEDFVLTTNKNA
# Molecular target: the molecule itself
# Test: crystal structure
protein,measurement,value
B1,stoichiometry N,2
